Source: US20240392003A1 (NUMAB THERAPEUTICS, published 2024)
Read-outs that look alike come from different tables or passages of the source.

Legend:
[1] = target: T1, recombinant human CD3 epsilon extra-cellular domain protein (His-Tag, SinoBiological) (human, UniProt P07766 23-126); assay: SPR; hCD3ε immobilized, two-state fit
T1 construct: extracellular domain; Bought; also called hCD3ε; human CD3ε; not shown: His tag

[2] = target: T1, recombinant human CD3 epsilon …; assay: SPR; hCD3ε immobilized, two-state fit (kd1)
Experimental: (§1) Binding kinetics (including affinity) of the four MATCH4 molecules to recombinant human CD3 epsilon extra-cellular domain protein (hCD3ε; His-Tag, SinoBiological) were determined by SPR analysis on a T200 device (Biacore, Cytiva). Recombinant hCD3ε molecules were covalently immobilized to a carboxymethylated dextran surface (CM5 sensorchip; Biacore, Cytiva) and a titration series of each MATCH4 molecule was injected as analyte. After each analyte injection-cycle, every flow channel on the sensor chip was regenerated (Glycine, pH 2.0 and 3 M MgCl₂), and a new concentration of MATCH4 molecule was injected. […] The apparent dissociation (kd1) and association (kₐ₁) rate constants, the second reaction constants (kₐ₂ and kd2) and the apparent dissociation equilibrium constant (KD) were calculated with the Biacore analysis software (Biacore Evaluation software Version 3.2, Cytiva) using a two-state binding model, and the quality of the fits was monitored based on relative Chi2. The binding level was calculated as the maximum stability binding achieved normalized to the theoretical Rmax.

[3] = target: T2, recombinant human ROR1 protein (Fc-Tag, Acro Biosystems RO1-H5250) (human, UniProt Q01973 30-406); assay: SPR; hROR1-Fc immobilized (Avidity)
T2 construct: Bought; also called hROR1; recombinant human ROR1 ECD; not shown: Fc tag

[4] = target: T3, human ROR1 expressed on cells (human, UniProt Q01973 30-937); assay: flow cytometry, MDA-MB-231 cells, 1 mg/ml hSA
T3 construct: whole, on cells; One molecule for cell-surface ROR1 on all cell lines; the cell line is named under assay; also called hROR1; plasma membrane human ROR1
Experimental: After incubation at 4° C. for 1 h in presence of 1 mg/ml of human serum albumin (hSA), plates were washed and incubated with specific detection antibodies.
The binding of MATCH4 molecules to plasma membrane-based human ROR1 was assessed by flow cytometry. The calculated EC₅₀, rel.

[5] = target: T3, human ROR1 expressed on cells; assay: flow cytometry, JIMT-1 cells (ROR1-positive)
[6] = target: T3, human ROR1 expressed on cells; assay: cell-based or functional assay
[7] = target: T3, human ROR1 expressed on cells; assay: flow cytometry, MDA-MB-231 cells, 1 mg/ml hSA; remark: listed apart in the source
[8] = target: T3, human ROR1 expressed on cells; assay: cell-based or functional assay; remark: listed apart in the source
[9] = target: T3, human ROR1 expressed on cells; assay: cell-based or functional assay; remark: listed apart in the source
[10] = target: T4, human ROR1 (Peprotech 160-054) (human, UniProt Q01973 30-406); assay: SPR; MATCH4 captured, hROR1 analyte (Affinity)
T4 construct: Bought, used as analyte; also called hROR1; recombinant human ROR1 protein
Experimental: Binding affinity without avidity was determined by using a proprietary anti-framework rabbit IgG (rlgG21-57-20-B11) immobilized to a carboxymethylated dextran surface (CM5 sensorchip; Biacore, Cytiva) to capture the MATCH4 molecules on the surface. A titration series of human ROR1 (Peprotech 160-054) molecule was injected as analyte. After each capture-analyte injection cycle, every flow channel on the sensor chip was regenerated (3 M MgCl₂), and a MATCH4 molecule was captured again followed by a different concentration of human ROR1. The binding kinetics to human ROR1 were measured using a multi-cycle kinetic assay, with ten analyte concentrations ranging from 0.088 to 90 nM, 1:2 diluted in running buffer (HEPES buffered saline, 0.05% Tween-20, pH 7.5; Bioconcept).
For both assays, the apparent dissociation (kd) and association (kₐ) rate constants and the apparent dissociation equilibrium constant (KD) were calculated with the Biacore analysis software (Biacore Evaluation software Version 3.2, Cytiva) using a one-to-one Langmuir binding model and quality of the fits was monitored based on Chi2 and U-value, which are measures for the quality of the curve fitting. The binding level was calculated as the maximum stability binding achieved normalized to the theoretical Rmax.

[11] = target: T1, recombinant human CD3 epsilon …; assay: SPR; hCD3ε immobilized, two-state fit (Ka1)
Experimental: as §1

[12] = target: T3, human ROR1 expressed on cells; assay: flow cytometry, JIMT-1 cells (ROR1-positive); remark: listed apart in the source

Ka2 [1]	Kd [1]	Kd2 [1]	koff [2]	Kd [3]	koff [3]	kon [3]	EC50 [4]	Rel. maximum binding (MFIMATCH4/MFIPRO2213) [4]	rel. EC50 (EC50, PRO2213/EC50, MATCH4) [4]	Avg. % max. CD8 T cell act. (JIMT-1) [6]	Avg. % max. CD8 T cell act. (MDA-MB-231) [6]	Avg. % max. CD8 T cell act. (SKOV3) [6]	Avg. EC50 (nM) CD8 T cell act. (JIMT-1) [6]	Avg. EC50 (nM) CD8 T cell act. (MDA-MB-231) [6]	Avg. EC50 (nM) CD8 T cell act. (SKOV3) [6]	Avg. % max. CD4 T cell act. (JIMT-1) [8]	Avg. % max. CD4 T cell act. (MDA-MB-231) [8]	Avg. % max. CD4 T cell act. (SKOV3) [8]	Avg. EC50 (nM) CD4 T cell act. (JIMT-1) [8]	Binder	further results
0.0063 s⁻¹	5900 pM	0.0042 s⁻¹	0.0065 s⁻¹	93 pM	7.02e-05 s⁻¹	755000 M⁻¹ s⁻¹	1550 pM	2.67	0.45	23.8%	68.5%	66.7%	0.08 nM	0.012 nM	0.032 nM	36.7%	79%	80.3%	0.09 nM	PRO2589 (bispecific antibody, heterodimeric MATCH4, bivalent for ROR1, monovalent for CD3 and hSA; also called MATCH4 with 55-38-D07-sc02 / 19-04-A10-sc06 / 28-21-D09-sc04 / 55-38-D07-sc02) chain 1: DVQMTQSPSSLSASVGDRVTITCRASENIYSGLAWYQQKPGKPPKLLIYRASTLASGVSSRFSGSGSGTDFTLTISSLQPEDFATYYCQGGYYSSSSTYIAFGTGTKVTVLGGGGGSGGGGSGGGGSGGGGSQSQVVESGGGLVQPGGSLRLSCAVSGFDLSSYAVSWVRQAPGKGLEWIGIIYPRANTYYASWAKGRFTISKDNSKNTVYLQMNSLRAEDTAVYFCARDRYDSGAYLYTTYFNLWGQGTLVTVSSGGGGSGGGGSAFELTQSPSSLSASVGDRVTITCQASESINSRLAWYQQKPGQPPKLLIYDASDLTSGVPSRFSGSGSGTDFTLTISSLQPEDFATYYCQGYGGSSTTTFGCGTKLTVLGGGSGGSDIQMTQSPSSLSASVGDRVTITCQSSQSVFSNNYLAWFQQKPGQSPKRLIYSASTLASGVPSRFSGSGSGTDFTLTISSLQPEDFATYYCLGSYACSSADCYVFGTGTKVTVLG chain 2: DVQMTQSPSSLSASVGDRVTITCRASENIYSGLAWYQQKPGKPPKLLIYRASTLASGVSSRFSGSGSGTDFTLTISSLQPEDFATYYCQGGYYSSSSTYIAFGTGTKVTVLGGGGGSGGGGSGGGGSGGGGSQSQVVESGGGLVQPGGSLRLSCAVSGFDLSSYAVSWVRQAPGKGLEWIGIIYPRANTYYASWAKGRFTISKDNSKNTVYLQMNSLRAEDTAVYFCARDRYDSGAYLYTTYFNLWGQGTLVTVSSGGGGSGGGGSEVQLVESGGGLVQPGGSLRLSCAASGFSLSSYDMSWVRQAPGKGLAWIGASYASGPTYYASWAKGRFTISRDNSKNTVYLQMNSLRAEDTATYFCARGGWTGTSHSNIWGQGTLVTVSSGGGSGGGSGGGSGEVQLVESGGGLVQPGGSLRLSCAASGFSLSSYAMNWVRQAPGKCLEWIGHINAGDIAYYATWAKGRFTISRDNSKNTVYLQMNSLRAEDTAVYFCARGAGGFSTGPFKLWGQGTLVTVSS	EC50 (read off the curve) [5]: 1000 to 2000 pM; fold better rel. EC50 than scMATCH3 PRO2507 [7]: ~10 fold; Avg. EC50 (nM) CD4 T cell act. (MDA-MB-231) [8]: 0.006 nM; Avg. EC50 (nM) CD4 T cell act. (SKOV3) [8]: 0.02 nM; Avg. % max. lysis (JIMT-1) [9]: 41%; Avg. % max. lysis (MDA-MB-231) [9]: 56.9%; Avg. % max. lysis (SKOV3) [9]: 54.6%; Avg. EC50 (nM) CD8 T cell act. (MDA-MB-231) [9]: 0.012 nM; Avg. EC50 (nM) CD8 T cell act. (SKOV3) [9]: 0.031 nM; Avg. EC50 (nM) Cytotoxicity (JIMT-1) [9]: 0.1 nM; Avg. EC50 (nM) Cytotoxicity (MDA-MB-231) [9]: 0.015 nM; Avg. EC50 (nM) Cytotoxicity (SKOV3) [9]: 0.043 nM; Kd [10]: 1200 pM; koff [10]: 0.00011 s⁻¹; kon [10]: 94000 M⁻¹ s⁻¹; kon [11]: 440000 M⁻¹ s⁻¹
0.0027 s⁻¹	4700 pM	0.0024 s⁻¹	0.00423 s⁻¹	22.7 pM	4.1e-05 s⁻¹	1.81e+06 M⁻¹ s⁻¹	280 pM	2.21	2.45	20.3%	67.5%	62.7%	4.6 nM	0.01 nM	0.68 nM	30.5%	80.3%	78.7%	3.9 nM	PRO2591 (bispecific antibody, heterodimeric MATCH4, bivalent for ROR1, monovalent for CD3 and hSA; also called MATCH4 with 55-39-G02-sc03 / 19-04-A10-sc06 / 28-21-D09-sc04 / 55-39-G02-sc03) chain 1: AQQLTQSPSSLSASVGDRVTITCQASQNVWNNNYLSWFQQKPGKPPKLLIVTASTLASGVSSRFSGSGSGTDFTLTISSLQPEDFATYYCAGGFSGEIRAFGTGTKVTVLGGGGGSGGGGSGGGGSGGGGSQSQLVESGGGLVQPGGSLRLSCAVSGIDLSRNAMSWVRQAPGKGLEWIGIILTSGSTYYASWAKGRFTISKTSTTLDLQMNSLRAEDTAVYFCVRGIASSSLKSFWGQGTLVTVSSGGGGSGGGGSAFELTQSPSSLSASVGDRVTITCQASESINSRLAWYQQKPGQPPKLLIYDASDLTSGVPSRFSGSGSGTDFTLTISSLQPEDFATYYCQGYGGSSTTTFGCGTKLTVLGGGSGGSDIQMTQSPSSLSASVGDRVTITCQSSQSVFSNNYLAWFQQKPGQSPKRLIYSASTLASGVPSRFSGSGSGTDFTLTISSLQPEDFATYYCLGSYACSSADCYVFGTGTKVTVLG chain 2: AQQLTQSPSSLSASVGDRVTITCQASQNVWNNNYLSWFQQKPGKPPKLLIVTASTLASGVSSRFSGSGSGTDFTLTISSLQPEDFATYYCAGGFSGEIRAFGTGTKVTVLGGGGGSGGGGSGGGGSGGGGSQSQLVESGGGLVQPGGSLRLSCAVSGIDLSRNAMSWVRQAPGKGLEWIGIILTSGSTYYASWAKGRFTISKTSTTLDLQMNSLRAEDTAVYFCVRGIASSSLKSFWGQGTLVTVSSGGGGSGGGGSEVQLVESGGGLVQPGGSLRLSCAASGFSLSSYDMSWVRQAPGKGLAWIGASYASGPTYYASWAKGRFTISRDNSKNTVYLQMNSLRAEDTATYFCARGGWTGTSHSNIWGQGTLVTVSSGGGSGGGSGGGSGEVQLVESGGGLVQPGGSLRLSCAASGFSLSSYAMNWVRQAPGKCLEWIGHINAGDIAYYATWAKGRFTISRDNSKNTVYLQMNSLRAEDTAVYFCARGAGGFSTGPFKLWGQGTLVTVSS	Avg. EC50 (nM) CD4 T cell act. (MDA-MB-231) [8]: 0.005 nM; Avg. EC50 (nM) CD4 T cell act. (SKOV3) [8]: 0.38 nM; Avg. % max. lysis (JIMT-1) [9]: 34.5%; Avg. % max. lysis (MDA-MB-231) [9]: 47.2%; Avg. % max. lysis (SKOV3) [9]: 58.7%; Avg. EC50 (nM) CD8 T cell act. (MDA-MB-231) [9]: 0.01 nM; Avg. EC50 (nM) CD8 T cell act. (SKOV3) [9]: 0.68 nM; Avg. EC50 (nM) Cytotoxicity (JIMT-1) [9]: 2.4 nM; Avg. EC50 (nM) Cytotoxicity (MDA-MB-231) [9]: 0.011 nM; Avg. EC50 (nM) Cytotoxicity (SKOV3) [9]: 3.5 nM; Kd [10]: 3200 pM; koff [10]: 0.00034 s⁻¹; kon [10]: 110000 M⁻¹ s⁻¹; kon [11]: 420000 M⁻¹ s⁻¹; EC50 (read off the curve) [12]: ~500 pM
